The text below walks through data of patent US20060222593A1.

“And” between values parts separate entries of the source, which are not always exact repeats. Identical values can stand only once. Like-named read-outs stand apart in the source and are kept apart here. Square brackets hold non-standard residues; d marks the D form. Ends that are not written are not given here.

Assay [1] concerns the target T1, ST receptor (rat intestinal membrane) (rat), P23897.
T1 chain: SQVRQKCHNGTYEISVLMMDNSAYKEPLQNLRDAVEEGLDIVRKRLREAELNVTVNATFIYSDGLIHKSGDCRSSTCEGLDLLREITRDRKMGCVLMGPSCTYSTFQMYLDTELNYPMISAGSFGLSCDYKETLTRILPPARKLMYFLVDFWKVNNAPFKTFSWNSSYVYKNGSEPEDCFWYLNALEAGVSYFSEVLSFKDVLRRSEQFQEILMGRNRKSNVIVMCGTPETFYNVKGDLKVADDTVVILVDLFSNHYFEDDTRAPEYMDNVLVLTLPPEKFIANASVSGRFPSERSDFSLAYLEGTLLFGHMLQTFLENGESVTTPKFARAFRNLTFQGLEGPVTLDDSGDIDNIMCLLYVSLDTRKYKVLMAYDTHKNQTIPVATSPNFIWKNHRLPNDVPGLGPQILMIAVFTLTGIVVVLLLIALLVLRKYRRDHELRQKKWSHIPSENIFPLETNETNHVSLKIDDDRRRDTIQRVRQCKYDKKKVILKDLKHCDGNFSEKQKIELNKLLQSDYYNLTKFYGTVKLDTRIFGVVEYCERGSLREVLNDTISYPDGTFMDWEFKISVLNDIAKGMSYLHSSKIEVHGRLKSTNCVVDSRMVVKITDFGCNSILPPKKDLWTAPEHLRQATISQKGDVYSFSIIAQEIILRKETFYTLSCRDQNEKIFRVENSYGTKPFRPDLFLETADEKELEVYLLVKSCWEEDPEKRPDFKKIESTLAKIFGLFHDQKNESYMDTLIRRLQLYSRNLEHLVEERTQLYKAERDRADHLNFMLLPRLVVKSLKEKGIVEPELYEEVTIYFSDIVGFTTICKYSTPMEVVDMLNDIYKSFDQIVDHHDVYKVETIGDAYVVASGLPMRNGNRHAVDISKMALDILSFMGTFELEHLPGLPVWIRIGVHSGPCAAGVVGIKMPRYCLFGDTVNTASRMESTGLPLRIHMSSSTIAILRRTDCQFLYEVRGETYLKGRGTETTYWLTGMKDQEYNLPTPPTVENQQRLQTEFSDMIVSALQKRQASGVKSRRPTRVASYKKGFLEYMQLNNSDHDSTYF
The experiment in a line: radioligand competition binding against [125I]ST1-17 on rat intestinal membrane.

Assay [2] has as its target T1, ST receptor (rat intestinal membrane) ….
Assay [3] has the same target. Nature of the assay: radioactive binding assay, labelled compound ca. 0.05 nM on rat intestinal membrane, filtration.

B1: CA3-ST5-18 (peptide)
peptide: CCELCCNPACAGCY
modifications: not checked
In turn, B1 came in with a Ki in assay [1] of 0.8 nM.

B2: CA1-(Lys)6-Gly-ST5-18 (peptide)
peptide: KKKKKKGCCELCCNPACAGCY
modifications: not checked
For the molecule B2, the Ki in assay [1] amounted to 72 nM.

B3: CA1-ST5-18 (peptide)
peptide: CCELCCNPACAGCY
modifications: not checked
Consider B3, for which, in assay [2], the Ki is 2.8 nM and 3.5 nM. In assay [1], this molecule yielded a Ki of 2.8 nM and a fold reduction in binding efficacy against the unconjugated ST peptide of 10 fold.

B4: ST5-18 (peptide)
peptide: CCELCCNPACAGCY
modifications: not checked
The molecule B4 gave a Ki in assay [1] of 0.4 nM.

B5: 99mTc-labelled CA1-ST5-18 (peptide)
peptide: CCELCCNPACAGCY
modifications: not checked
B5: the binding, % of total added in assay [3] was found to be 6%.

B6: CA1-(Gly)3-(D-Glu)3-ST5-18 (peptide)
peptide: GGG[dE][dE][dE]CCELCCNPACAGCY
modifications: not fully specified (N-terminus); cysteine pairing not given here
Turning to B6, the Ki in assay [1] stood at 1 nM.
